Experimental data: publication PMC7417555, “Comparative structural analyses and nucleotide-binding characterization of the four KH domains of FUBP1”

Experiments:
[1] = molecular target: T1, FUBP1 KH4 (UniProt Q96AE4 376-443); assay: EMSA; ITC: 25 mM HEPES pH 7.5, 50 mM NaCl (150 mM for tandem and KH1-4), 0.5 mM TCEP, 20 C; native PAGE: 200 uM protein, 5x ssDNA, 25 mM HEPES pH 7.5, 50 mM NaCl, 0.5 mM TCEP, 4 C, 0.5x TBE (KH4 0.5x TAE); settings: protein: recombinant; tags: N-terminal His6 kept in native PAGE; removed by TEV in general protocol
[2] = molecular target: T2, FUBP1 KH2 (UniProt Q96AE4 185-251); assay: as above; settings: protein: recombinant; tags: His6 removed by TEV
[3] = molecular target: T3, FUBP1 KH1 (UniProt Q96AE4 100-164); assay: ITC; 50 mM NaCl; Kd only in Fig 3C; ITC: 25 mM HEPES pH 7.5, 50 mM NaCl (150 mM for tandem and KH1-4), 0.5 mM TCEP, 20 C; native PAGE: 200 uM protein, 5x ssDNA, 25 mM HEPES pH 7.5, 50 mM NaCl, 0.5 mM TCEP, 4 C, 0.5x TBE (KH4 0.5x TAE); settings: protein: recombinant; tags: His6 removed by TEV
[4] = molecular target: T1, FUBP1 KH4; assay: as above; settings: protein: recombinant; tags: N-terminal His6 kept in native PAGE; removed by TEV in general protocol
[5] = molecular target: T2, FUBP1 KH2; assay: as above; settings: protein: recombinant; tags: His6 removed by TEV
[6] = molecular target: T4, FUBP1 KH3 (UniProt Q96AE4 275-339); assay: ITC; 50 mM NaCl; ITC: 25 mM HEPES pH 7.5, 50 mM NaCl (150 mM for tandem and KH1-4), 0.5 mM TCEP, 20 C; native PAGE: 200 uM protein, 5x ssDNA, 25 mM HEPES pH 7.5, 50 mM NaCl, 0.5 mM TCEP, 4 C, 0.5x TBE (KH4 0.5x TAE); settings: protein: recombinant; tags: His6 removed by TEV
[7] = molecular target: FUBP1 KH1-4 (UniProt Q96AE4 100-443); assay: ITC; 150 mM NaCl; ITC: 25 mM HEPES pH 7.5, 50 mM NaCl (150 mM for tandem and KH1-4), 0.5 mM TCEP, 20 C; native PAGE: 200 uM protein, 5x ssDNA, 25 mM HEPES pH 7.5, 50 mM NaCl, 0.5 mM TCEP, 4 C, 0.5x TBE (KH4 0.5x TAE); settings: protein: recombinant; tags: His6 removed by TEV
[8] = molecular target: FUBP1 KH3-4 (UniProt Q96AE4 275-443); assay: ITC; 150 mM NaCl; range given for the three tandems; ITC: 25 mM HEPES pH 7.5, 50 mM NaCl (150 mM for tandem and KH1-4), 0.5 mM TCEP, 20 C; native PAGE: 200 uM protein, 5x ssDNA, 25 mM HEPES pH 7.5, 50 mM NaCl, 0.5 mM TCEP, 4 C, 0.5x TBE (KH4 0.5x TAE); settings: protein: recombinant; tags: His6 removed by TEV
[9] = molecular target: FUBP1 KH1-2 (UniProt Q96AE4 100-251); assay: as above; settings: protein: recombinant; tags: His6 removed by TEV
[10] = molecular target: FUBP1 KH2-3 (UniProt Q96AE4 185-339); assay: as above; settings: protein: recombinant; tags: His6 removed by TEV
[11] = molecular target: T1, FUBP1 KH4; assay: ITC; 50 mM NaCl; no preference between fragments 7 and 8; ITC: 25 mM HEPES pH 7.5, 50 mM NaCl (150 mM for tandem and KH1-4), 0.5 mM TCEP, 20 C; native PAGE: 200 uM protein, 5x ssDNA, 25 mM HEPES pH 7.5, 50 mM NaCl, 0.5 mM TCEP, 4 C, 0.5x TBE (KH4 0.5x TAE); settings: protein: recombinant; tags: N-terminal His6 kept in native PAGE; removed by TEV in general protocol
[12] = molecular target: T2, FUBP1 KH2; assay: ITC; 50 mM NaCl; preferred over fragment 8; ITC: 25 mM HEPES pH 7.5, 50 mM NaCl (150 mM for tandem and KH1-4), 0.5 mM TCEP, 20 C; native PAGE: 200 uM protein, 5x ssDNA, 25 mM HEPES pH 7.5, 50 mM NaCl, 0.5 mM TCEP, 4 C, 0.5x TBE (KH4 0.5x TAE); settings: protein: recombinant; tags: His6 removed by TEV
[13] = molecular target: T3, FUBP1 KH1; assay: EMSA; ITC: 25 mM HEPES pH 7.5, 50 mM NaCl (150 mM for tandem and KH1-4), 0.5 mM TCEP, 20 C; native PAGE: 200 uM protein, 5x ssDNA, 25 mM HEPES pH 7.5, 50 mM NaCl, 0.5 mM TCEP, 4 C, 0.5x TBE (KH4 0.5x TAE); settings: protein: recombinant; tags: His6 removed by TEV
[14] = molecular target: T4, FUBP1 KH3; assay: as above; settings: protein: recombinant; tags: His6 removed by TEV

T2 sequence (Q96AE4 185-251): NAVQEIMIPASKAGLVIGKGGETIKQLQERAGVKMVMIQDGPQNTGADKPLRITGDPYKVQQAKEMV
T1 sequence (Q96AE4 376-443): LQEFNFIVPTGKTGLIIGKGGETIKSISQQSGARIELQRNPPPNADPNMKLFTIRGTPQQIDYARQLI
T3 sequence (Q96AE4 100-164): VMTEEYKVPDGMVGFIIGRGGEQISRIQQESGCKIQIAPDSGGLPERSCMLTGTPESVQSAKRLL
T4 sequence (Q96AE4 275-339): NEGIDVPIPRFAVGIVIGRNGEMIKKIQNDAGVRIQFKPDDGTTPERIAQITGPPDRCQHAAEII
FUBP1 KH1-4, sequence (Q96AE4 100-443): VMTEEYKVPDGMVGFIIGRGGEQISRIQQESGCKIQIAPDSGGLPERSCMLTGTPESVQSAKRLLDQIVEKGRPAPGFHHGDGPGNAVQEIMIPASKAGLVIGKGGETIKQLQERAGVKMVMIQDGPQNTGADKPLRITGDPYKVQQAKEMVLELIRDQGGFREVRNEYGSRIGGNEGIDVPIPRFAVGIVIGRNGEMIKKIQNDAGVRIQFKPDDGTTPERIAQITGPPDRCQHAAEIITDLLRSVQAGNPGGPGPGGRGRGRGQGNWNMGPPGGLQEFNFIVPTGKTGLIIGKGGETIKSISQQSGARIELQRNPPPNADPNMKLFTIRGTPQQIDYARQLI
FUBP1 KH1-2, sequence (Q96AE4 100-251): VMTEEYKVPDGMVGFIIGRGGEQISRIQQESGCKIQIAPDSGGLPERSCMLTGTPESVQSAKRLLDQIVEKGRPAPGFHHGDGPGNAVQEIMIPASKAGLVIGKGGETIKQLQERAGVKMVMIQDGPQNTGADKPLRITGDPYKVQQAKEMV
FUBP1 KH2-3, sequence (Q96AE4 185-339): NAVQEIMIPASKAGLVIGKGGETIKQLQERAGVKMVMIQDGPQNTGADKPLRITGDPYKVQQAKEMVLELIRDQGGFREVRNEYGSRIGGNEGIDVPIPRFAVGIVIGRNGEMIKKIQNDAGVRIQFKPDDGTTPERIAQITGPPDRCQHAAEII
FUBP1 KH3-4, sequence (Q96AE4 275-443): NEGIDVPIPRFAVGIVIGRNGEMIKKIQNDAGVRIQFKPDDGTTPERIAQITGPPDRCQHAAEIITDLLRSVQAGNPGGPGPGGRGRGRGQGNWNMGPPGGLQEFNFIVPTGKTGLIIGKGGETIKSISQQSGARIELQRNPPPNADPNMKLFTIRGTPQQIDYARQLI

B1: FUSE fragment 4, 10-mer (ssDNA)
DNA: CCCTCGGGAA
Q: Does B1 bind [1]?
A: Result: no binding

Q: Does B1 bind [2]?
A: Result: no binding

B2: FUSE fragment 8, 8-mer (ITC) (ssDNA)
DNA: TTGTGTTA
Q: For B2, which binding signal [3] is on record?
A: The binding signal was > 5 fold weaker than KH3 (at least).

Q: What about the binding signal [4] of the same binder?
A: The binding signal was > 5 fold weaker than KH3 (at least).

Q: And the binding signal [5]?
A: Its binding signal is > 5 fold weaker than KH3 (at least).

Q: And the Kd [6]?
A: The Kd was 17 µM.

B3: 47-mer c-Myc FUSE (ssDNA)
DNA: ATGTATATTCCCTCGGGATTTTTTATTTTGTGTTATTCCACGGCATG
Q: How did the Kd [7] turn out when B3 was run?
A: The Kd was about 0.085 µM.

Q: And the Kd [8]?
A: Its Kd is about 5.29 µM.

Q: And the Kd [9]?
A: The Kd was about 5.29 µM.

Q: And the Kd [10]?
A: Its Kd is about 5.29 µM.

B4: FUSE fragment 7, 8-mer (ITC) (ssDNA)
DNA: TATTTTGT
Q: Which results are given for B4?
A: binding result [11]: binds; binding result [12]: binds

B5: FUSE fragment 10, 10-mer (ssDNA)
DNA: TTCCACGGAA
Q: Does B5 bind [1]?
A: Result: no binding

Q: Does B5 bind [2]?
A: Result: no binding

B6: FUSE fragment 8, 10-mer (native PAGE) (ssDNA)
DNA: TTTGTGTTAA
Q: Does B6 bind [13]?
A: Result: binds

Q: Does B6 bind [14]?
A: Result: binds
